The supplement of paper PMC9170038

Columns and labels:
[1] = tested on: MS2 coat protein; test: apparent KD of MS2 coat protein, switch OFF state (with FMN for OFF switches, without FMN for ON switches); designed switch direction (-1 OFF switch, 1 ON switch): -1; higher = weaker reporter binding; settings: FMN input: 0 or 200 uM; Eterna round: R93 (includes R88 designs)
How it was run: (§1)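 Designed RNA switches were transcribed on-chip from Illumina sequencing clusters and titrated with SNAP-549-labelled MS2 coat protein in twofold steps from 0.7 or 1.5 nM up to 3 µM. Each step lasted 0.8–1.5 h at first and 10–20 min by the end, in 100 mM Tris-HCl pH 7.5, 80 mM KCl and 4 mM MgCl2, without or with constant ligand. Apparent KD is the median, for each design, of fits to normalised cluster binding curves.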

[2] = tested on: MS2 coat protein; test: apparent KD of MS2 coat protein, switch ON state; designed switch direction (-1 OFF switch, 1 ON switch): -1; higher = weaker reporter binding; settings: FMN input: 0 or 200 uM; Eterna round: R93 (includes R88 designs)
How it was run: as §1

In the case of “AGAAAGUCAGGAUAUGCGAAGGCGUCUGAUAGACGAGGCUAGCAGAAGGGACAUGAGGAUCACCCAUGUGAAAA [Mat - Exclusion 4 - Eli mod - D86]”, the “apparent KD of MS2 coat protein” value [1] is reported as 133 nM and the “apparent KD of MS2 coat protein” value [2] is reported as 48.4 nM.

For “GAUCCACAUGAGGAUCACCCAUGUAAGGAUAUUUAAAACCGGAGGAAACCCUCCGAAGAAAGAAGGUACAAAAC [Atceabi]”, the “apparent KD of MS2 coat protein” value [1] was 14.5 nM and the “apparent KD of MS2 coat protein” value [2] was 14.6 nM.

With “AAGUGGGCAGGAUAUACAUGAGGAUCACCCAUGUAAAGAAAAGAAAGAUCCGAAGAAAGUAGAAGGGCCUGCAA [Mod 1 of Ex3 sub 3, by Tesla's Dusciple Round 1]” the “apparent KD of MS2 coat protein” value [1] was 137 nM and the “apparent KD of MS2 coat protein” value [2] was 144 nM.

In the case of “AAAAAGCGAGGAUAUACAUGAGGAUCACCCAUGUAAAAAAAAAAAAAGGGAAAAAAAAGUAGAAGGCGCAAAAA [Sekhemraneferkhau Wepwawetemsaf]”, the “apparent KD of MS2 coat protein” value [1] is reported as 48.7 nM and the “apparent KD of MS2 coat protein” value [2] is reported as 43.2 nM.

“AAGAAGCGAGGAUAUACAAAAUAAAAGAAAAGAAAGAAAGAACAUGAGGAUCACCCAUGUAGAAGGCGUAAGAA [Sankhenre Sewadjtu]” was tested, and the “apparent KD of MS2 coat protein” value [1] was 11.1 nM and the “apparent KD of MS2 coat protein” value [2] was 13.3 nM.

In the case of “AAACAACAUGAGGAUCACCCAUGUUAGGAUAUGAACGAAAUAAAAUAAAAAUAAAAGUUCAGAAGGGACAAAAA [Mat - Exclusion 1 - Eli mod - D21]”, the “apparent KD of MS2 coat protein” value [1] is reported as 25.6 nM and the “apparent KD of MS2 coat protein” value [2] is reported as 23.4 nM.

“UCCUGACAUGAGGAUCACCCAUGUCAGGAUAUCUACAGAACCUCAUGUAAAAAACUGUAGAGAAGGGAUAUGGG [Design 98: Pseudoknot H]” was tested, and the “apparent KD of MS2 coat protein” value [1] was 17.5 nM and the “apparent KD of MS2 coat protein” value [2] was 16.9 nM.

For “GUCGUGUGAGGAUAUGGAAAGUAGAAGUGGCGGUCGAAAACCUAGAAGGCACAUGAGGAUCACCCAUGUAAGAG [JR_Exc004_Sub1708]”, the “apparent KD of MS2 coat protein” value [1] was 54.3 nM and the “apparent KD of MS2 coat protein” value [2] was 57 nM.

For “AAGAACUGAGGAUAUACAUGAAAGAAAGAAAAGAAAAGAAAACAUGAGGAUCACCCAUGUAGAAGGCAGAAGAA [EteRNA is fun!]”, the “apparent KD of MS2 coat protein” value [1] was 14.4 nM and the “apparent KD of MS2 coat protein” value [2] was 16.9 nM.

“ACCUGACAUGAGGAUCACCCAUGUGAGGAUAUGUACAUCAGGAAAAAAAAACUGAUGUACAGAAGGCACAAGGG [Amethyst 49]” was tested, and the “apparent KD of MS2 coat protein” value [1] was 38.7 nM and the “apparent KD of MS2 coat protein” value [2] was 23.1 nM.

In the case of “GGUUGGCGAGGAUAUACAUGAGGAUCACCCAUGUGAGAGAAAAAAGUGAGAAUGAAAAGUAGAAGGCGCUGACG [salish99-ex3-35]”, the “apparent KD of MS2 coat protein” value [1] is reported as 215 nM and the “apparent KD of MS2 coat protein” value [2] is reported as 46.2 nM.

With “AAGACUAGAGGAUAUACAUGAGGAUCACCCAUGUAACUGUCAGGAAACUGACGGAGAUGUAGAAGGCUAGUCAA [Mat - Exclusion 3 - Neo mod - D75]” the “apparent KD of MS2 coat protein” value [1] was 38.4 nM and the “apparent KD of MS2 coat protein” value [2] was 16.7 nM.

With “AAGUACGAAGGAUAUACAUGGAUAUACAUUCAUGUGGACCUACAUGAGGAUCACCCAUGUAGAAGGUCGUAAUA [Mat - Same state - Mayanna Mod - D145]” the “apparent KD of MS2 coat protein” value [1] was 12.8 nM and the “apparent KD of MS2 coat protein” value [2] was 24.6 nM.

In the case of “GUGUACAGAGGAUAUACAUGAGCUAGGAAACUAGCAGGAUCACAUGAGGAUCACCCAUGUAGAAGGCUGUACAC [Ex2: 731]”, the “apparent KD of MS2 coat protein” value [1] is reported as 15.5 nM and the “apparent KD of MS2 coat protein” value [2] is reported as 42.5 nM.

In the case of “AAAACGGCAGGAUAUACAGAUGAGAUCUCGACCGAAAAAAAACAUGAGGAUCACCCAUGUAGAAGGGCCAAAAA [Ex2 Malc#5]”, the “apparent KD of MS2 coat protein” value [1] is reported as 60.9 nM and the “apparent KD of MS2 coat protein” value [2] is reported as 30.1 nM.

With “AAAAAACAUGAGGAUCACCCAUGUCAGGAUAUCUGUAUUCAAUCCUCGGAUUGAAUACAGAGAAGGGAUAUGAA [Ex1: 604]” the “apparent KD of MS2 coat protein” value [1] was 62.2 nM and the “apparent KD of MS2 coat protein” value [2] was 42.2 nM.

“AACAGUACAGGAUAUACAUGAGGAUCACCCAUGUGAAAAUUAAGUGGAAAACCACAAUGUAGAAGGGUACUGGA [Mat - Exclusion 3 - Eli mod - D49]” was tested, and the “apparent KD of MS2 coat protein” value [1] was 219 nM and the “apparent KD of MS2 coat protein” value [2] was 46.1 nM.

For “AGAAAACAUGAGGAUCACCCAUGUGAGGAUAUGCGAAAGAAAGAAAGAAAGAAAGAAAGCAGAAGGCACAAGAA [Ex 1 Tesla 2]”, the “apparent KD of MS2 coat protein” value [1] was 44.4 nM and the “apparent KD of MS2 coat protein” value [2] was 15.6 nM.

“GGGUCACAUGAGGAUCACCCAUGUAAGGAUAUGCUAGGGAUGGAAGCCAGGCCGCAACGCAGAAGGUACUAAAG [Janelle Amethyst 18 Mod 14 - Jieux - Exclusion 1]” was tested, and the “apparent KD of MS2 coat protein” value [1] was 54.7 nM and the “apparent KD of MS2 coat protein” value [2] was 55.1 nM.

In the case of “AAGAAGAAAGGAUAUACAAGGAAGAAAGAAAAGAAAAGAAAACAUGAGGAUCACCCAUGUAGAAGGUUCUAGAA [EteRNA is fun!]”, the “apparent KD of MS2 coat protein” value [1] is reported as 9.5 nM and the “apparent KD of MS2 coat protein” value [2] is reported as 15.2 nM.

“AAAACUGGAGGAUAUACAUGAGGAUCACCCAUGUGUGGAUGAGCUGUGUCGGCAUCACGUAGAAGGCCACAAAA [Gilly Gone Silly 38 - Jieux - Exclusion 3]” was tested, and the “apparent KD of MS2 coat protein” value [1] was 53.3 nM and the “apparent KD of MS2 coat protein” value [2] was 34.4 nM.

“AAUAUCGGAGGAUAUGCAUAGAUAAAGAACCAUGUUAAAACACAUGAGGAUCACCCAUGUAGAAGGCCGAUAAA [AJ 9]” was tested, and the “apparent KD of MS2 coat protein” value [1] was 77.5 nM and the “apparent KD of MS2 coat protein” value [2] was 54.1 nM.

In the case of “AACAGUACAGGAUAUACAUGAGGAUCACCCAUGUGAAAAGAAAGUGGCGUACCACAAAGUAGAAGGGUACUGGA [Mat - Exclusion 3 - JL mod - D24]”, the “apparent KD of MS2 coat protein” value [1] is reported as 96.8 nM and the “apparent KD of MS2 coat protein” value [2] is reported as 27.5 nM.

In the case of “AAUAACCGAGGAUAUACAAAACUUGUGAUCUAGUGGAUUUUACAUGAGGAUCACCCAUGUAGAAGGCGGAAAAG [Veenquge]”, the “apparent KD of MS2 coat protein” value [1] is reported as 212 nM and the “apparent KD of MS2 coat protein” value [2] is reported as 61.3 nM.

For “AACAUGUCAGGAUAUGUAGCAAAAGGUGAUCAAAAAAAGCUACAGAAGGGACAUGAGGAUCACCCAUGUAAAAA [Ex4: 934]”, the “apparent KD of MS2 coat protein” value [1] was 37.1 nM and the “apparent KD of MS2 coat protein” value [2] was 126 nM.

In the case of “GAAAAGUGAGGAUAUUCGGAAGGGAAAGCGCAAACCCAACCGAAGAAGGCACAUGAGGAUCACCCAUGUGGAAG [Mat - Exaclusion 4 - Eli mod - D58]”, the “apparent KD of MS2 coat protein” value [1] is reported as 28.7 nM and the “apparent KD of MS2 coat protein” value [2] is reported as 23.6 nM.

For “AAGAAACAUGAGGAUCACCCAUGUGAGGAUAUCUAAAAGAAAAGAAAAGAAAGAAGAAAGAGAAGGCACAAAGG [Setut]”, the “apparent KD of MS2 coat protein” value [1] was 64.1 nM and the “apparent KD of MS2 coat protein” value [2] was 34.7 nM.

For “AAAAAAGGAGGAUAUACGUACAUGUCGAAAGACGUGAAGGGACAUGAGGAUCACCCAUGUAGAAGGCUUAAAAA [Mat - Exclusion 2 - JL mod - D70]”, the “apparent KD of MS2 coat protein” value [1] was 22.9 nM and the “apparent KD of MS2 coat protein” value [2] was 37.2 nM.

For “AAAAAACAUGAGGAUCACCCAUGUGAGGAUAUGCGAAACAAAAAAAACAAAAACAAAAGCAGAAGGCACAAAAA [Amethyst 33]”, the “apparent KD of MS2 coat protein” value [1] was 25.7 nM and the “apparent KD of MS2 coat protein” value [2] was 25 nM.

In the case of “AAUAAGAGAGGAUAUACAUAAUAAAAGAAAAGAAACAAAGAACAUGAGGAUCACCCAUGUAGAAGGCUCAAUAA [Sonbef]”, the “apparent KD of MS2 coat protein” value [1] is reported as 18.9 nM and the “apparent KD of MS2 coat protein” value [2] is reported as 21.9 nM.

In the case of “AACAAGUGAGGAUAUGAAAAUAAAACAAACAAACAAAUAAAUCAGAAGGCACAUGAGGAUCACCCAUGUAAAAA [JR_Exc004_Sub1203]”, the “apparent KD of MS2 coat protein” value [1] is reported as 18.5 nM and the “apparent KD of MS2 coat protein” value [2] is reported as 17.1 nM.

For “AAAAAACAUGAGGAUCACCCAUGUAAGGAUAUGCUAAAAAACACGGAAAACGUGAAUAGCAGAAGGUACAAAAG [Mat - Exclusion 1 - Eli mod - D84]”, the “apparent KD of MS2 coat protein” value [1] was 67.7 nM and the “apparent KD of MS2 coat protein” value [2] was 15.9 nM.

With “AAAAAACAUGAGGAUCACCCAUGUGAGGAUAUGUACGAAAUAAAUAAAAAAUAAAAGUACAGAAGGCACAAAAA [Mat - Exclusion 1 - Eli mod - D5]” the “apparent KD of MS2 coat protein” value [1] was 32.4 nM and the “apparent KD of MS2 coat protein” value [2] was 35.5 nM.
